The source of these data is patent publication US20120100582A1 (DSM IP ASSETS B V, published 2012).

Substitutions are numbered along the chain they refer to. Names may count otherwise.

Data set [1] concerns the molecule itself. Description: blue native gel electrophoresis, self-association. The procedure: Blue native gel electrophoresis (BN-PAGE) of bacterial lysates containing APLE was performed according to the method described by Reisinger and Eichacker (2006), “Analysis of membrane protein complexes by blue native PAGE”, Proteomics 6 Suppl 2, 6-15, with the following modifications. Aliquots containing 200 μg of soluble proteins were diluted with 10 mM Tris/HCl pH 7.4 to a final volume of 95 μl. Five μl of loading buffer was added to the sample before applying them on an 8-16% linear gradient gel. Gradient gels (16×20 cm) were created with the help of a Bio-Rad Gradient Former model 485 (Bio-Rad Laboratories, Vienna, Austria). Electrophoresis was performed at a constant current of 24 mA per gel at 4° C. After electrophoresis, gels were incubated in 0.1 M potassium phosphate buffer, pH 7.0, for 20 min at room temperature. For the in-gel-detection of esterase activity, the substrate fluorescein diacetate (FDA) was dissolved in acetone [4 mg/ml] and applied on a Biodyne® A membrane ([…], 16×20 cm) (Pall Life Science, Michigan, USA). After evaporation of acetone, the membrane was brought in close contact with the gel which was placed on a glass plate. The gel-membrane sandwich was incubated at 37° C. for 30 min before detection of fluorescent bands.
Esterase activity was visualized herein through staining with fluorescein resulting from hydrolysis of fluorescein diacetate (FDA). All 7 wild-type enzymes are trimers of about the same height on the native gel, whereas the V263D mutants show bands on the lower third of the gel. Multiple bands were excised and analyzed on an SDS-PAGE gel. Multiple bands result in one clear band at the size of about 58 kDa (data not shown). It is assumed that these bands result from different conformations of the same monomer.

Data set [2] deals with the molecule itself. Kind of data set: blue native gel electrophoresis, self-association (homotrimer). The procedure:
Blue native gel electrophoresis (BN-PAGE) of bacterial lysates containing APLE was performed according to the method described by Reisinger and Eichacker (2006), “Analysis of membrane protein complexes by blue native PAGE”, Proteomics 6 Suppl 2, 6-15, with the following modifications. Aliquots containing 200 μg of soluble proteins were diluted with 10 mM Tris/HCl pH 7.4 to a final volume of 95 μl. Five μl of loading buffer was added to the sample before applying them on an 8-16% linear gradient gel. Gradient gels (16×20 cm) were created with the help of a Bio-Rad Gradient Former model 485 (Bio-Rad Laboratories, Vienna, Austria). Electrophoresis was performed at a constant current of 24 mA per gel at 4° C. After electrophoresis, gels were incubated in 0.1 M potassium phosphate buffer, pH 7.0, for 20 min at room temperature. For the in-gel-detection of esterase activity, the substrate fluorescein diacetate (FDA) was dissolved in acetone [4 mg/ml] and applied on a Biodyne® A membrane ([…], 16×20 cm) (Pall Life Science, Michigan, USA). After evaporation of acetone, the membrane was brought in close contact with the gel which was placed on a glass plate. […]
Esterase activity was visualized herein through staining with fluorescein resulting from hydrolysis of fluorescein diacetate (FDA). […] Multiple bands were excised and analyzed on an SDS-PAGE gel. […]

Data set [3] concerns the molecule itself. Description: method not named, self-association.

B1: PICE with V263D mutation (enzyme)
chain: GQPASPPVVDTAQGRVLGKYVSLEGLAQPVAVFLGVPFAKPPLGSLRFAPPQPAEPWSFVKNTTSYPPMCCQDPVAGQMTSDLFTNGKERLIPEFSEDCLYLNIYTPADLTKRGRLPVMVWIHGGGLVVGGASTYDGLALAAHENVVVVAIQYRLGIWGFFSTGDEHSRGNWGHLDQVAALHWVQENIANFGGDTGSVTIFGESAGGESVSVLVLSPLAKNLFHRAISESGVALTAGLVRKDMKAAAKQIAVLAGCKTTTSADFVHCLRQKSEDELLDLTLKMKFLTLDLHGDPRESHPFLPTVVDGVLLPKMPEEILAEKDFNTVPYIVGINKQEFGWLLPTMMGFPLSEGKLDQKTATSLLWKSFPITNIPEELTPVATDKYLGGTDDPVKKKDLFLDLMGDVVFGVPSVTVARQHRDAGAPTYMYEFQYRPSFSSDKKPKTVIGDHGDEIFSVFGFPLLKGDAPEEEVSLSKTVMKFWANFARSGNPNGEGLPHWPMYDQEEGYLQIGVNTQAAKRLKGEEVAFWNDLLSKEAAKKPPKIKHAEL
notes: Monomeric mutant; also called PICE-V263D
On to B1, for which the binding result in data set [1] is on record as “no binding”.

B2: PLE4 with V263D mutation (enzyme)
chain: B1 chain with T195P, L234F, F285P, P302T, F367Y, T370A, F459A, L461F, K463R
notes: Monomeric mutant; also called PLE4-V263D
In the case of B2, in data set [1], the binding result is “no binding”.

B3: APLE wild-type (enzyme)
chain: GQPASPPVVDTAQGRVLGKYVSLEGLAQPVAVFLGVPFAKPPLGSLRFAPPQPAEPWSFVKNTTSYPPMCCQEPIGGQMLSDLFTNRKERLIPEFSEDCLYLNIYTPADLTKRGRLPVMVWIHGGGLVVGGASTYDGLALAAHENVVVVAIQYRLGIWGFFSTGDEHSRGNWGHLDQVAALHWVQENIANFGGDPGSVTIFGESAGGESVSVLVLSPLAKNLFHRAISESGVAFTAGLVRKDMKAAAKQIAVLAGCKTTTSAVFVHCLRQKSEDELLDLTLKMKFFALDLHGDPRESHPFLTTVVDGVLLPKMPEEILAEKDFNTVPYIVGINKQEFGWLLPTMMGFPLSEGKLDQKTATSLLWKSYPIANIPEELTPVATDKYLGGTDDPVKKKDLFLDLMGDVVFGVPSVTVARQHRDAGAPTYMYEFQYRPSFSSDKKPKTVIGDHGDEIFSVFGFPLLKGDAPEEEVSLSKTVMKFWANFARSGNPNGEGLPHWPMYDQEEGYLQIGVNTQAAKRLKGEEVAFWNDLLSKEAAKKPPKIKHAEL
notes: Homotrimer on native gel; also called pig liver esterase
For the protein B3, in data set [2], the binding result was “binds”.

B4: APLE L43D variant (enzyme)
chain: B3 chain with L43D
For B4, the binding result in data set [3] is reported as “no binding”.

B5: PLE3 with V263D mutation (enzyme)
chain: B3 chain with V263D, F285P, F286L, A287T
notes: Monomeric mutant; also called PLE3-V263D
B5: the binding result in data set [1] was “no binding”.

B6: APLE with V263D mutation (enzyme)
chain: B3 chain with V263D
notes: Monomeric mutant, tested in E. coli cleared lysate; also called APLE-V263D; mutant, monomeric APLE
Turning to B6, the binding result in data set [1] is given as “no binding”.

B7: PLE5 with V263D mutation (enzyme)
chain: B3 chain with E73D, I75V, G76A, L80T, R87G, V263D, F459A, L461F, K463R
notes: Monomeric mutant; also called PLE5-V263D
With B7, in data set [1], the binding result is reported as “no binding”.

B8: γPLE wild-type (enzyme)
chain: GQPASPPVVDTAQGRVLGKYVSLEGLAQPVAVFLGVPFAKPPLGSLRFAPPQPAEPWSFVKNTTSYPPMCCQDPVVEQMTSDLFTNGKERLTLEFSEDCLYLNIYTPADLTKRGRLPVMVWIHGGGLVLGGAPMYDGVVLAAHENVVVVAIQYRLGIWGFFSTGDEHSRGNWGHLDQVAALHWVQENIANFGGDPGSVTIFGESAGGESVSVLVLSPLAKNLFHRAISESGVALTVALVRKDMKAAAKQIAVLAGCKTTTSAVFVHCLRQKSEDELLDLTLKMKFLTLDFHGDQRESHPFLPTVVDGVLLPKMPEEILAEKDFNTVPYIVGINKQEFGWLLPTMMGFPLSEGKLDQKTATSLLWKSYPIANIPEELTPVATDKYLGGTDDPVKKKDLFLDLMGDVVFGVPSVTVARQHRDAGAPTYMYEFQYRPSFSSDKKPKTVIGDHGDEIFSVFGFPLLKGDAPEEEVSLSKTVMKFWANFARSGNPNGEGLPHWPMYDQEEGYLQIGVNTQAAKRLKGEEVAFWNDLLSKEAAKKPPKIKHAEL
notes: Tested in E. coli cleared lysate; Homotrimer; also called gamma-PLE
Consider B8, for which the binding result in data set [2] is reported as “binds”.

B9: γ-PLE with V263D mutation (enzyme)
chain: B8 chain with V263D
notes: Monomeric mutant; also called γPLE-V263D
As to B9, the binding result in data set [1] was “no binding”.

B10: PLE2 with V263D mutation (enzyme)
chain: B8 chain with V263D, F459A, L461F, K463R
notes: Monomeric mutant; also called PLE2-V263D
Take B10: in data set [1], the binding result is listed as “no binding”.
